In article PMC7598476 (2020):

Experiments:
hMPV B2 F GCN4 = test: ELISA
[1] = biological target: monomeric hMPV B2 F protein, treated with trypsin (human metapneumovirus (subgroup B2)); test: ELISA
[2] = biological target: hMPV F protein of subgroup B1 (ELISA panel) (human metapneumovirus (subgroup B1)); test: ELISA
[3] = biological target: hMPV F protein of subgroup A2 (ELISA panel) (human metapneumovirus (subgroup A2)); test: ELISA
[4] = biological target: recombinant hMPV B2 F protein (human metapneumovirus (subgroup B2)); test: ELISA
[5] = biological target: post-fusion trimeric hMPV B2 F (trypsin treated) (human metapneumovirus (subgroup B2)); test: ELISA
[6] = biological target: hMPV F protein of subgroup A1 (ELISA panel) (human metapneumovirus (subgroup A1)); test: ELISA
[7] = biological target: biotinylated monomeric hMPV B2 F protein (human metapneumovirus (subgroup B2), biotin (site not stated)); test: BLI

Row | Binder | EC50 (hMPV B2 F GCN4) [µg/mL] | EC50 [1] [µg/mL] | EC50 [2] [µg/mL] | EC50 [3] [µg/mL] | EC50 [4] [µg/mL] | EC50 [5] [µg/mL] | EC50 [6] [µg/mL] | koff [7] [s⁻¹]
1 | MPE8 monoclonal antibody (recombinant, human IgG1) (antibody, V domains shown) VH: EVQLVESGGGLVKPGGSLRLSCAASGFTFSSYSMNWVRQAPGKGLEWVSSISSSSSYIYYADSVKGRFTISRDNAKNSLYLQMNSLRAEDTAVYYCARARATGYNSITPYFDIWGQGTLVTVSS VL: QSVVTQTPSVSGAPGQRVTISCTGSSSNIGAGYDVHWYQQLPGTAPKLLIYDNNNRPSGVPDRFSASKSGTSASLAITGLQAEDEADYYCQSYDRSLSGVFGTGTKVTVL | 4.7 | 0.63 | 3.1 | 4.3 | 2 | 1.3 | 1.3 | 
2 | MPV458 human monoclonal antibody (antibody, V domains shown) VH: QGKLVESGGGVIQPGRSLRLSCAASGFDFSRYGLHWVRQAPGKGLEWVAVIVYAGSNKYYADSVKGRFTISKDNSKNTMHLQMSDLRTEDTAVYYCARDQAFDLWGQGTMVTVSS VL: DIQMTQSPASLSASVGDRVTITCQASQGISRSVNWYQQKPGKAPKLLIFDASHLERGVPSRFSGSGYGTDFTFTISSLQPEDIATYYCQQYDNLRISFGQGTRLEIK | 0.2 | 0.027 | 0.39 | 0.39 | 0.12 | 0.13 | 0.33 | 
3 | MPV458 Fab (Fab, V domains shown) VH: QGKLVESGGGVIQPGRSLRLSCAASGFDFSRYGLHWVRQAPGKGLEWVAVIVYAGSNKYYADSVKGRFTISKDNSKNTMHLQMSDLRTEDTAVYYCARDQAFDLWGQGTMVTVSS VL: DIQMTQSPASLSASVGDRVTITCQASQGISRSVNWYQQKPGKAPKLLIFDASHLERGVPSRFSGSGYGTDFTFTISSLQPEDIATYYCQQYDNLRISFGQGTRLEIK |  |  |  |  |  |  |  | 8.4e-05
